Patent US10946092 (BEIJING MABWORKS BIOTECH, dated 2021)

How the values were obtained:
[1] = target: T1, human LAG3 expressed on HEK293A cells (human, UniProt P18627 23-525); experiment: FACS on HEK293A/human LAG3 cells
T1 construct: whole, on cells; also called HEK293A/human LAG3
T1 sequence (looked up): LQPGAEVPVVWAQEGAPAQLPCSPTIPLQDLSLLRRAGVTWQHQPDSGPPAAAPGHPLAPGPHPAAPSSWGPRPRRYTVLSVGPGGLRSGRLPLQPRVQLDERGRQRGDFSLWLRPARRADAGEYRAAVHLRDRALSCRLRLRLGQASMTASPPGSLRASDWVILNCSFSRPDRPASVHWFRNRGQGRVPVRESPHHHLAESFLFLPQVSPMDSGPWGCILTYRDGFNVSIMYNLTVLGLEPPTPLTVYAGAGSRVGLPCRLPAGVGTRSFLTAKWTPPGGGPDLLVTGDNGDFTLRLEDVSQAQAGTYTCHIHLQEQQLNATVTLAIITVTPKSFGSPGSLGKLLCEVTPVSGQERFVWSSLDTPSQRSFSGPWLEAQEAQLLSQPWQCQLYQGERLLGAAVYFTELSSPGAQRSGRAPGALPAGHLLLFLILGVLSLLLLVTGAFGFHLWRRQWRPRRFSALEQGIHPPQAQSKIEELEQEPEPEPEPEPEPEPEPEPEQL
Protocol: Briefly, 10^5 HEK293A cells in 50 μl PBS buffers were seeded into each well of the 96-well plates and then added with 50 μl of serially diluted anti-LAG3 antibodies (5-fold dilution, starting from 40 μg/ml). After incubated at 4° C. for 1 hour, plates were washed 3 times with PBST. Then, an APC coupled Goat Anti-Mouse IgG (BioLegend, US, Cat #: 405308) diluted 500× was added to the plates. After incubation at 4° C. for 1 hour, the plates were washed with PBS for 3 times and then cell fluorescence was monitored using a FACS machine (BD).

[2] = target: T2, recombinant mouse LAG3(ECD)-his (Sino Biological, Cat #: 53069-M08H) (mouse, UniProt Q61790 24-442); experiment: ELISA, coated mouse LAG3-his
T2 construct: extracellular domain; Bought protein; also called Mouse LAG3-his; not shown: his tag
T2 sequence (looked up): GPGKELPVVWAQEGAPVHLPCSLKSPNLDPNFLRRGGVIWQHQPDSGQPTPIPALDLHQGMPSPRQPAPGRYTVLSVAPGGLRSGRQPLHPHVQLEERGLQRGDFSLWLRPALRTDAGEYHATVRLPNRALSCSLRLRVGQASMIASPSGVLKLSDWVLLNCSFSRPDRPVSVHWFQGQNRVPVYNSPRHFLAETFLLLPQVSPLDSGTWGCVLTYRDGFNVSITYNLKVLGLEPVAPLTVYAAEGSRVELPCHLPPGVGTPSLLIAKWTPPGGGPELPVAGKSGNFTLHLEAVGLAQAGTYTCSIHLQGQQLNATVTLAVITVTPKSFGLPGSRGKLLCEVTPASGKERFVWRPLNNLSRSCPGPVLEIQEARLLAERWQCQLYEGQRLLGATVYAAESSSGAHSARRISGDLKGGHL
Protocol: (§1) Species-cross-reactivity of the 12 LAG3 mAbs to monkey or mouse LAG3 was further tested by direct ELISA. Briefly, 50 µl of 500 ng/ml monkey LAG3(ECD)-hFc (ACRO, CN, Cat #: LA3-05252) or mouse LAG3-his (Sino Biological, CN, Cat #:53069-M08H) was coated on 96-well ELISA plates followed by incubation with 100 µl of serially diluted anti-LAG3 antibodies (starting from 40 µg/ml). Goat anti-mouse IgG conjugated with HRP (Sigma, US, Cat #: A9309-1 ml) was added then.

[3] = target: T3, recombinant monkey LAG3(ECD)-hFc (ACRO, Cat #: LA3-05252) (monkey (rhesus), UniProt A0A5F8A874 23-450); experiment: ELISA, coated monkey LAG3(ECD)-hFc
T3 construct: Bought protein; also called rhesus LAG3(ECD)-hFc; rh LAG3(ECD)-hFc; not shown: human Fc (hFc) and any linker
T3 sequence: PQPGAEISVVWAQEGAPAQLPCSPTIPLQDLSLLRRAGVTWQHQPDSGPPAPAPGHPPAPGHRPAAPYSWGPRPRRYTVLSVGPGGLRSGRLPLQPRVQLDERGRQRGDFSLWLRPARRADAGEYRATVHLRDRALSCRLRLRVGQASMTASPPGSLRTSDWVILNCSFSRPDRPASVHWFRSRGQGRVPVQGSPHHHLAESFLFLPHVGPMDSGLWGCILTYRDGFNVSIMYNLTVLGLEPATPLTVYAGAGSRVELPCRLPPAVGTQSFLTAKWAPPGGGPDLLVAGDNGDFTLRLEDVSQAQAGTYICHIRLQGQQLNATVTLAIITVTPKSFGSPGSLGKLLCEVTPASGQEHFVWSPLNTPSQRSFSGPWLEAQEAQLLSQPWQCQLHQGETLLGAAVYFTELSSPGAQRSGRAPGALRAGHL
Protocol: as §1

[4] = target: T4, recombinant human LAG3(ECD)-his (Sino Biological, Cat #: 16498-H08H) (human, UniProt P18627 23-450); experiment: ELISA, coated human LAG3(ECD)-his
T4 construct: extracellular domain; Bought protein; not shown: his tag
T4 sequence (looked up): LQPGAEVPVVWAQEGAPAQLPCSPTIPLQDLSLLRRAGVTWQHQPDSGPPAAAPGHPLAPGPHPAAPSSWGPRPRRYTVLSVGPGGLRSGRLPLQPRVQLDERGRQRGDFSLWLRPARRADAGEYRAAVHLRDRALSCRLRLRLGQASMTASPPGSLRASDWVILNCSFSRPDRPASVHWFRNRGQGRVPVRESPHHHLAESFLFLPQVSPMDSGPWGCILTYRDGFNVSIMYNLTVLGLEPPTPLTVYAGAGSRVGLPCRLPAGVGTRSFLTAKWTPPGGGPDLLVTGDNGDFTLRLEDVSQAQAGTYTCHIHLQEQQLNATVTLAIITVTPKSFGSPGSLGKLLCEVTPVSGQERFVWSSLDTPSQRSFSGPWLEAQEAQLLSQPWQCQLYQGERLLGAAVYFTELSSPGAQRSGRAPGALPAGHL
Protocol: The wells were blocked with 200 µl of blocking buffer (PBS containing 1% BSA, 1% goat serum, and 0.05% Tween 20) for 2 hours at room temperature, and then 100 µl of serially diluted anti-LAG3 antibodies (starting from 40 µg/ml) were added to each well and incubated for 1 hour at RT. Plates were washed for 3 times with PBST (PBS+0.05% Tween 20), added with Goat-anti-mouse IgG-HRP (Sigma, US, Cat #: A9309-1 ml) diluted 5000×, and incubated for 1 hour at RT. Plates were developed with freshly prepared Ultra-TMB (BD, US, Cat #:555214) for 5 minutes at RT. Absorbance was read on a SpectraMaxR i3X (Molecular Devies, US) at 450 nm.

B1: mouse anti-LAG3 monoclonal antibody 101F4 (antibody, V domains shown)
VH: EVQLEQSGAELVRPGASVTLSCKASGYTFTDYEMHWVKQTPVYGLEWMGAIDPETGGIVYNQRFKGKAILTADKSSSTAYMELRSLTSEDSAVYYCTGAGWGYWGQGTTLTVSS
VL: DIVITQSPSSMYASLGERVTITCKASQDINSYLSWFQQKPGKSPKTLIYRANRLLDGVPSRFSGSGSGQDYSLTISSLEFEDMGLYYCLQYDEFPFTFGSGTKLEIK
[1]
  EC50: 0.36 nM
[2]
  binding result: no binding (tested: starting from 40 µg/ml)
[3]
  EC50: 2.3 nM
[4]
  EC50: 4 nM

B2: mouse anti-LAG3 monoclonal antibody 134G10 (antibody, V domains shown)
VH: EVQLVESGGDLVKPGGSLKLSCAASGFTFSSFGMSWVRQTPDKRLEWVGIISSGGTYTFYPDILKGRFTISRDNAKNTLYLQMSSLKSEDTAMYYCARVYSDYDGRFDYWGQGTTLTVSS
VL: DIVMTQSPSSLSVSAGEKVTMNCKSSQSLLNSGNQKNYLAWYQQKPGQPPKLLIYGASTRESGVPDRFTGSGSGTDFTLTISSVQAEDLAVYYCQNDHSYPLTFGAGTKLELK
[1]
  EC50: 8.6 nM
[2]
  binding result: no binding (tested: starting from 40 µg/ml)
[3]
  EC50: 0.23 nM
[4]
  EC50: 1.92 nM
